One block for each binder: values may come before it.
Biological target: cynoCTLA-4-his protein (CT4-05227, AcroBio) (cyno) (UniProt G7PL88)
Test: SPR, Biacore T200, antibody immobilised, CTLA-4-his injected, 1:1 model

- Kd: 0.0591 nM
- koff: 0.000308 s⁻¹
- kon: 5.21e+06 M⁻¹ s⁻¹
B1: CL5′-dPTM′ (antibody, human IgG1, V domains shown)
VH: EVQLVESGGGLIQPGGSLRLSCAVSGFTVSKNYMSWVRQAPGKGLEWVSVVYSGGSKTYADSVKGRFTISRDNSKNTLYLQMNSLRAEDTAVYYCARAVPHSPSSFDIWGQGTMVTVSS

- Kd: 0.0243 nM
- koff: 0.00011 s⁻¹
- kon: 4.55e+06 M⁻¹ s⁻¹
B2: CL5′-eA-dPTM′ (antibody, human IgG1, V domains shown)
VH: B1 VH
